Reference: publication PMC9793359

Experiments:
[1] = target: Flag-tagged nsp8 of SARS-CoV-2 (SARS-CoV-2) (UniProt P0DTD1); assay: co-IP
[2] = target: Flag-tagged nsp7 of SARS-CoV-2 (SARS-CoV-2) (UniProt P0DTD1); assay: co-IP

Row | Substance | decrease in co-precipitated complex against wild type [1] | decrease in co-precipitated complex against wild type [2] | increase in co-precipitated complex against wild type [1] | increase in co-precipitated complex against wild type [2]
1 | HA-tagged nsp12 T20A mutant (natural protein) | 33% | 33% |  | 
2 | HA-tagged nsp12 T20E mutant (natural protein) |  |  | 2 fold | 2 fold
